Laboratory results reported in US20220242939A1 (BIOARCTIC, published 2022).
Blank lines part the entries; values can stand above or below the binder they belong to. Non-standard residues stand in square brackets, D forms with d. No end group written: not given here. Ahx = NCCCCCC(=O)O

Tests used:
[1] = target: T1, full-length ApoE in human brain extract from Alzheimer's disease patients (human, UniProt P02649 19-317); test: Western blot, human AD brain extract, hybridoma supernatant (data not shown for 21C3)
T1 construct: mature; Endogenous protein on Western blot or in solution (IP); also called ApoE full-length protein
T1 sequence (P02649 19-317): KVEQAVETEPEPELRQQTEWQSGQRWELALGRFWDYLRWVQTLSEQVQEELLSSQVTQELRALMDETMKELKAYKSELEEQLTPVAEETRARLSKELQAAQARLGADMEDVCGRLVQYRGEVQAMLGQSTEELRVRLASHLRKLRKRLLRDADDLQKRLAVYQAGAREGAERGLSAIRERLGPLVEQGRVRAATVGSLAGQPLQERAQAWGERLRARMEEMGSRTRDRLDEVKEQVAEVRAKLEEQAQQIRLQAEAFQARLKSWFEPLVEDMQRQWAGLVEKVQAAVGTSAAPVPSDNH
From the text: Selectivity evaluation and human target binding in Alzheimer's disease brain extracts by Western blot analysis: The Western blot analysis described below was used to evaluate selective binding of monoclonal antibodies with affinity for the N-terminal neo-epitope of ApoE fragments […], starting at G200, without binding to ApoE full-length protein, in human brain extracts from an Alzheimer's disease patient. Fresh frozen brain tissue from the Alzheimer's disease patient was homogenized in RIPA 2% SDS extraction buffer, followed by centrifugation at 16000×g for 1 h. The subsequent supernatant was subjected to standard protein concentration determination.
RIPA 2% SDS brain extract containing 80 μg total protein was mixed with 2×Laemmli sample buffer, boiled for 5 min at 95° C. and loaded onto SDS-PAGE gels (Bolt™ 12% Bis-Tris Plus 10 well, Thermo Fisher, cat. no. NW00120BOX). Gels were run for 30-40 min at 180 V, after which proteins were transferred from the gels to nitrocellulose membranes using the Trans-Blot® Turbo™ system (Bio-Rad). Membranes were blocked in Odyssey® blocking buffer for 1 h and incubated over night at room temperature with hybridoma supernatant diluted 1:1 in Odyssey® blocking buffer with 0.1% TWEEN®-20. […]

[2] = target: T2, G200 N-terminal neo-epitope peptide GQPLQE-Acp-C (SEQ ID NO:50) conjugated to BSA (human, not fully specified (residue 8); printed as GQPLQE-Acp-C; also: C-terminal Cys conjugated to BSA carrier); test: direct ELISA, target coated at 1 ug/ml, supernatant in 3-fold dilutions from 1000 ng/ml, OD 450 nm
T2 construct: also called G200-BSA peptide; G200-peptide
T2 peptide: GQPLQE[Ahx]C
Procedure: (§1) Selectivity evaluation by direct ELISA: The direct ELISA described below was used to evaluate the binding selectivity of generated monoclonal anti-ApoE antibodies with affinity for the N-terminal neo-epitope of C-terminal ApoE fragments starting at amino acid G200.
(§2) The screening was performed according to standard ELISA protocols. Briefly, 1 μg/ml solutions of N-terminal neo-epitope peptide (SEQ ID NO:50) conjugated to BSA, the recombinant C-terminal ApoE fragment G200-HIS (SEQ ID NO:48) and recombinant full-length ApoE4 (SEQ ID NO:45; Abcam; cat. no. ab50243) were prepared by dilution in PBS. 50 μl/well were added to an ELISA half-area 96 well microtiter plate. Then, the plate was sealed with adhesive sealer and incubated over night at 4° C. The plates were blocked with 150 μl/well of protein-free blocking solution (Pierce) for 1 h at room temperature with shake (600-900 rpm). The plates were washed four times with washing buffer containing 0.28 mM NaH₂PO₄, 2.5 mM Na₂HPO₄, 150 mM NaCl, 0.1% TWEEN®-20 and 0.0075% Kathon CG. Antibodies of interest were serially diluted 3-fold with a starting dilution at 1 μg/ml (mixed 1:1 with dilution buffer: PBS with 0.1% BSA and 0.05% TWEEN®-20) and incubated for 2 h at room temperature. The plates were washed four times as before. […] After another wash (as above), 50 μl/well of K-Blue® aqueous substrate (Neogen) were added, and the reaction was stopped after 5-15 min with 50 μl/well of 0.5 M […]. The optical density at 450 nm was read using an ELISA reader (Tecan). The optical density was plotted against the antibody concentration to generate concentration-response curves (FIG. 14).

[3] = target: T3, recombinant full-length ApoE4 (aa 1-299; SEQ ID NO:45; Abcam cat. no. ab50243) (human, UniProt P02649 19-317); test: as above
T3 construct: Bought protein; also called recombinant ApoE4 full-length protein
T3 sequence (P02649 19-317 C130R limits assumed): as the sequence (P02649 19-317) above, with C112R counted along it
Procedure: as §1, §2

[4] = target: T4, recombinant C-terminal ApoE fragment G200-HIS (ApoE-G200-H299-10xHIS) (human, UniProt P02649 218-317); test: as above
T4 construct: also called G200-HIS fragment
T4 sequence (P02649 other isoform, or with tags, fused parts or gaps limits assumed): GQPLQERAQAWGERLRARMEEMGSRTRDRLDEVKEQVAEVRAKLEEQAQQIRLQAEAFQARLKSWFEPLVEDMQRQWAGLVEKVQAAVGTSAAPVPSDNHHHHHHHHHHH
Procedure: as §1, §2

[5] = target: T5, His-tagged recombinant full-length ApoE4, 10xHIS-ApoE4(1-299) (human, UniProt P02649 19-317); test: direct ELISA
T5 construct: also called ApoE4-FL-HIS
T5 sequence (P02649 other isoform, or with tags, fused parts or gaps limits assumed): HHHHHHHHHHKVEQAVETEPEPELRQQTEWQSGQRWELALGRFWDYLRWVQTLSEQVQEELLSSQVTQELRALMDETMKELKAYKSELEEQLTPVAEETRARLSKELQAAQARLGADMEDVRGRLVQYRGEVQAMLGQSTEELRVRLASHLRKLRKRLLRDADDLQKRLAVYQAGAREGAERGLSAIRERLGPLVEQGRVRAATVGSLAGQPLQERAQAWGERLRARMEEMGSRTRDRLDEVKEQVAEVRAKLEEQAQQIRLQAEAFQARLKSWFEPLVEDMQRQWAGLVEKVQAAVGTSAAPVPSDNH

[6] = target: T6, L198 N-terminal neo-epitope peptide LAGQPLQE-Acp-C (SEQ ID NO:54) conjugated to BSA (human, not fully specified (residue 10); printed as LAGQPLQE-Acp-C; also: C-terminal Cys conjugated to BSA carrier); test: direct ELISA after limiting dilution
T6 construct: BSA carrier
T6 peptide: LAGQPLQE[Ahx]C

[7] = target: T7, recombinant C-terminal ApoE fragment L198-HIS (ApoE-L198-H299-10xHIS) (human, UniProt P02649 216-317); test: direct ELISA, L198-HIS coated at 0.1 µM
T7 construct: also called L198-HIS fragment
T7 sequence (P02649 other isoform, or with tags, fused parts or gaps limits assumed): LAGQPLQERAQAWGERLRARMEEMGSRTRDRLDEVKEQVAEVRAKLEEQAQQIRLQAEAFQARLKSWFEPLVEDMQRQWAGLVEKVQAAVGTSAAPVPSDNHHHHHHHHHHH
Method in brief: (§3)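 Antigens were coated overnight at 4 °C in PBS, then plates were blocked with protein-free blocker for 1 h. Purified mAbs in 3-fold serial dilutions from 3 μg/ml were bound for 2 h at room temperature, with anti-ApoE C-terminal E-8 as reference. TMB substrate development was stopped with H2SO4 and OD450 was read.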

[8] = target: T8, L198 N-terminal neo-epitope peptide LAGQPL-Acp-C (SEQ ID NO:52) conjugated to BSA (human, not fully specified (residue 8); printed as LAGQPL-Acp-C; also: C-terminal Cys conjugated to BSA carrier); test: direct ELISA, L198-BSA peptide coated at 1 µg/ml
T8 construct: BSA carrier; also called L198-BSA peptide
T8 peptide: LAGQPL[Ahx]C
Method in brief: as §3

[9] = target: T1, full-length ApoE in human brain extract …; test: Western blot of AD brain RIPA 2% SDS extract; monoclonal antibody at 2 ug/ml as primary antibody
[10] = target: T2, G200 N-terminal neo-epitope peptide …; test: direct ELISA; proteins coated at 0.1 uM, BSA peptides at 1 ug/ml; antibody in 3-fold dilutions from 3000 ng/ml; blank reduced OD 450 nm
Procedure: (§4) Selectivity evaluation of purified monoclonal antibodies by direct ELISA: The direct ELISA described below was used to evaluate the binding selectivity of the purified monoclonal antibodies produced in Example 14.
(§5) The screening was performed according to standard ELISA protocols. Briefly, 1 μg/ml solutions of BSA-conjugated neo-epitope peptides and negative control peptide, and 0.1 μM recombinant C-terminal ApoE fragment and full-length ApoE (Abcam, cat. no. ab50243) were prepared by dilution in PBS. 50 μl/well were added to an ELISA half-area 96 well microtiter plate, and the plate was sealed with adhesive sealer and incubated over night at 4° C. After discarding the solution, the plates were blocked with 150 μl/well of protein-free blocking solution (Pierce) for 1 h at room temperature with shake (600-900 rpm). The plates were washed four times with washing buffer containing 0.28 mM NaH₂PO₄, 2.5 mM Na₂HPO₄, 150 mM NaCl, 0.1% TWEEN®-20 and 0.0075% Kathon CG. Purified monoclonal antibodies of interest were 3-fold serially diluted with a starting dilution at 3 μg/ml (mixed 1:2 with dilution buffer (PBS with 0.1% BSA and 0.05% TWEEN®-20)). An anti-ApoE C-terminal antibody was used as a reference antibody (ApoE E-8 mouse monoclonal, Santa Cruz Biotechnology, cat. no. sc-393302). 50 μl/well were added into the ELISA plates and incubated for 2 h at room temperature with shake (600-900 rpm). The plates were washed four times as described previously. […] After another wash (as described previously), 50 μl/well of K-Blue® aqueous substrate (Neogen) were added, and the reaction was stopped after 5-15 min with 50 μl/well of 0.5 M […]. The optical density at 450 nm was read using an ELISA reader (Tecan).

[11] = target: T3, recombinant full-length ApoE4 (aa …); test: as above
Procedure: as §4, §5

[12] = target: T9, A199 N-terminal neo-epitope peptide AGQPLQ-Acp-C (SEQ ID NO:51) conjugated to BSA (human, not fully specified (residue 8); printed as AGQPLQ-Acp-C; also: C-terminal Cys conjugated to BSA carrier); test: as above
T9 construct: BSA carrier; also called A199-BSA peptide
T9 peptide: AGQPLQ[Ahx]C
Procedure: as §4, §5

[13] = target: T10, negative control peptide AATVGSLAGQPLQER-Acp-C (SEQ ID NO:53) conjugated to BSA (human, not fully specified (residue 17); printed as AATVGSLAGQPLQER-Acp-C; also: C-terminal Cys conjugated to BSA carrier); test: as above
T10 construct: BSA carrier; also called 192-206 BSA-conjugated peptide
T10 peptide: AATVGSLAGQPLQER[Ahx]C
Procedure: as §4, §5

binding result [1]: no binding | EC50 (read off the curve) [2]: ~4 ng/mL | binding result [3]: no binding (tested: 1000 ng/ml) | EC50 (read off the curve) [4]: ~4 ng/mL
B1: 21C3, hybridoma monoclonal antibody (unpurified supernatant) (antibody, V domains shown)
VH: EVQLVESGGDLVKPGGSLKLSCAASGFTFSSYAMSWVRQSPEKRLEWVAEISGSGSRDHYTDSVTGRFTVSRDNAKNTLYLEMSSLRSEDTAIYYCARQLTGTDYYGTDYWGQGTSVTVSS
VL: DVLMTQIPLSLPVSLGDQASISCRSSQSIVYSNGNTYLEWYLQRPGQSPKLLIYKVSNRFSGVPDRFSGSGSGTDFTLKISRVEAEDLGVYYCFQGSHLPYTFGGGTKLEIK
notes: same VH and VL as 4E6; not made as recombinant antibody

binding result [5]: no binding (tested: 3 µg/ml) | binding result [6]: binds | EC50 [7]: 18.5 ng/mL | EC50 [8]: 13.5 ng/mL | binding result [9]: no binding (tested: 2 ug/ml (text)) | binding result [10]: no binding (tested: 3000 ng/ml) | binding result [11]: no binding (tested: 3000 ng/ml) | binding result [12]: no binding (tested: 3000 ng/ml) | binding result [13]: no binding (tested: 3000 ng/ml)
B2: 6F4, monoclonal anti-L198 antibody (antibody, IgG1, V domains shown)
VH: EVNLEESGGDLVQPGRSLKLSCVASGFTFSDYWMNWVRQSPEKGLEWVAQIRLKSDNYVTHYVESLKGRFTISRDDSRSCVYLQMNNLRAEDTGIYYCTGHILLRRRYFDVWGTGTTVTVSS
VL: DIVMTQSQKFMSTSVGDRVSVTCEASQNVGTNVAWYQQKPGQSPKGLIYSASYRYSGVPDRFTGSGSGTDFTLTISTVQSEDLAEYFCHQFNTYPYTFGGGTTLEII
